The values below come from the RNAGym collection of RNA variant scans (doi:10.1073/pnas.2313332121).

B1: TPR 5TU (parent)
chain: GGAUCUUCUCGAUCUAACAAAAAAGACAAAUCUGCCACAAAGCUUGAGAGCAUCUUCGGAUGCAGAGGCGGCAGCCUUCGGUGGCGCGAUAGCGCCAACGUUCUCAACUAUGACACGCAAAACGCGUGCUCCGUUGAAUGGAGUUUAUCAUG

Variants at the floor of the assay were thinned out. Where only a bound is given, the exact number is not on record here.

Variants of B1 are the subject of the data set. As to the kind of experiment: polymerase ribozyme fitness, log enrichment relative to wild type (log ratio); higher = more active; in vitro selection for triplet polymerase activity. A digest of the protocol:
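A heterodimeric triplet polymerase ribozyme had each of its subunits mutagenized by PCR into a library, which was transcribed. One round of in vitro selection, done in triplicate, annealed each library with a biotinylated primer, its partner subunit and triplets, then incubated it frozen at −7 °C before gel excision of extended constructs, streptavidin-bead capture and RT-PCR. Fitness is the logarithm of genotype enrichment relative to wild-type enrichment, based on Illumina sequencing of inputs and outputs and inverse-variance-weighted replicate averages. A base-2 logarithm is used, and genotypes were kept only with ≥10 input reads and ≥1 read per output.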
In the case of U56C C87U, the “polymerase ribozyme fitness (log ratio)” value is -1.06.

Turning to U56C C95A U102A, the “polymerase ribozyme fitness (log ratio)” value is -1.87.

For C57A C114U, the “polymerase ribozyme fitness (log ratio)” value was -1.45.

For the variant C57A A60G U101A U109A A113U, the “polymerase ribozyme fitness (log ratio)” value is -3.65.

U56A U134A G143C: the “polymerase ribozyme fitness (log ratio)” value is -4.04.

Take U56G G92U A97U C105U: the “polymerase ribozyme fitness (log ratio)” value was -1.61.

Take U56C C87U A89G U101G: the “polymerase ribozyme fitness (log ratio)” value was -2.81.

Take C57G C76A C95U C129G A137C U144G: the “polymerase ribozyme fitness (log ratio)” value is at most -4.2.

Regarding C57A G117U, the “polymerase ribozyme fitness (log ratio)” value was found to be 0.691.

As to C57A A91G, the “polymerase ribozyme fitness (log ratio)” value is -2.76.

For C57A U90A A91U A138U, the “polymerase ribozyme fitness (log ratio)” value is at most -4.2.

U56G G84U C85A C99U: the “polymerase ribozyme fitness (log ratio)” value is at most -4.2.

With C57A G83C G141A, the “polymerase ribozyme fitness (log ratio)” value was -0.777.

On to C57A G88U A120C G124A C149A, for which the “polymerase ribozyme fitness (log ratio)” value was at most -4.2.

Take U56A U82G: the “polymerase ribozyme fitness (log ratio)” value worked out at 0.243.

In the case of C57G A150G, the “polymerase ribozyme fitness (log ratio)” value is -1.23.

As for C57G C85U, the “polymerase ribozyme fitness (log ratio)” value is -1.28.

For the variant C57A G92U C105G, the “polymerase ribozyme fitness (log ratio)” value was -1.2.

Take C57A C87U C103G: the “polymerase ribozyme fitness (log ratio)” value was -2.01.

C57A A60G C79G: the “polymerase ribozyme fitness (log ratio)” value is -3.6.

As for C57A U82A A121U G133C, the “polymerase ribozyme fitness (log ratio)” value was -0.916.

Take C57A U102G: the “polymerase ribozyme fitness (log ratio)” value was -1.73.

Regarding C57A G62C C76U A91U C108U G140U U144G C149G, the “polymerase ribozyme fitness (log ratio)” value is at most -4.2.

Regarding U56G C108A, the “polymerase ribozyme fitness (log ratio)” value was at most -4.2.

In the case of U56G G68U G81A G84A A91C U135C, the “polymerase ribozyme fitness (log ratio)” value is at most -4.2.

With C57G A89G C93A, the “polymerase ribozyme fitness (log ratio)” value is at most -4.2.

U56G U146G: the “polymerase ribozyme fitness (log ratio)” value is -3.46.

Consider C57G C72G C79U C103G, for which the “polymerase ribozyme fitness (log ratio)” value is at most -4.2.

For U56A U90C U144G, the “polymerase ribozyme fitness (log ratio)” value was -3.91.

Take C57A G84U: the “polymerase ribozyme fitness (log ratio)” value was -1.29.

As to U56C C76A A122G, the “polymerase ribozyme fitness (log ratio)” value is -0.262.

Regarding C57A G136A, the “polymerase ribozyme fitness (log ratio)” value was determined as 0.714.

With C57A U139A, the “polymerase ribozyme fitness (log ratio)” value is -3.84.

As for U56G G70U C85U U151A, the “polymerase ribozyme fitness (log ratio)” value is at most -4.2.

Consider U56G G68U, for which the “polymerase ribozyme fitness (log ratio)” value was at most -4.2.

Regarding U56C G62U C87U, the “polymerase ribozyme fitness (log ratio)” value is -0.567.

Regarding C57A C69G A91U A119G G128A G140C U145G, the “polymerase ribozyme fitness (log ratio)” value is at most -4.2.

For the variant C57A C93G, the “polymerase ribozyme fitness (log ratio)” value was -3.05.

As for C57A C93U, the “polymerase ribozyme fitness (log ratio)” value was -1.11.

For the variant U56C C75A G88C C99G, the “polymerase ribozyme fitness (log ratio)” value was at most -4.2.

With C57A G70U G80A G83C C87U C108A, the “polymerase ribozyme fitness (log ratio)” value is at most -4.2.

Regarding U56C C85A C131G, the “polymerase ribozyme fitness (log ratio)” value is -3.7.

As to U56G C116G, the “polymerase ribozyme fitness (log ratio)” value is -0.0028.

As to U56G G84A, the “polymerase ribozyme fitness (log ratio)” value is -3.48.

Turning to U56G U135A, the “polymerase ribozyme fitness (log ratio)” value was -1.84.

For the variant U56G U135G, the “polymerase ribozyme fitness (log ratio)” value is -3.68.

On to C57A A64C C85A C95U U130A A147U, for which the “polymerase ribozyme fitness (log ratio)” value was at most -4.2.

Regarding C57A G94A, the “polymerase ribozyme fitness (log ratio)” value was -0.487.

Turning to U56C G68U A121G U148A, the “polymerase ribozyme fitness (log ratio)” value is at most -4.2.

For the variant U56G C85G, the “polymerase ribozyme fitness (log ratio)” value is -2.54.

Turning to C57A C95U C149U, the “polymerase ribozyme fitness (log ratio)” value was -0.536.

Turning to U56G C63A A120G, the “polymerase ribozyme fitness (log ratio)” value is -0.244.

As to C57A U102C C103U, the “polymerase ribozyme fitness (log ratio)” value is -2.76.

For the variant C57A U135C, the “polymerase ribozyme fitness (log ratio)” value is -1.62.

U56G C57A G81A A107C G117A: the “polymerase ribozyme fitness (log ratio)” value was at most -4.2.

As for C57A G84U A89U G92U C118U U151A, the “polymerase ribozyme fitness (log ratio)” value was at most -4.2.

In the case of U56G C93U, the “polymerase ribozyme fitness (log ratio)” value is -3.02.

In the case of U56C C96U, the “polymerase ribozyme fitness (log ratio)” value is -0.496.

Take C57G A60C: the “polymerase ribozyme fitness (log ratio)” value is -2.4.

Consider C57A G70U C96U, for which the “polymerase ribozyme fitness (log ratio)” value is -2.27.

For the variant C57A A150U, the “polymerase ribozyme fitness (log ratio)” value is 1.72.

Turning to C57A A89G C95U A119U A120U C125U, the “polymerase ribozyme fitness (log ratio)” value is -1.54.

Consider C57A C96U G124A A150C, for which the “polymerase ribozyme fitness (log ratio)” value is -3.99.

With C57A A73G C125A, the “polymerase ribozyme fitness (log ratio)” value was -0.303.

With U56C C132U, the “polymerase ribozyme fitness (log ratio)” value is -1.47.

With U56G U82A A89G C95U G133C, the “polymerase ribozyme fitness (log ratio)” value was -3.49.

For the variant C57A C85U A106U C125G G136U U146G, the “polymerase ribozyme fitness (log ratio)” value is -3.77.

C57A G65A U82G: the “polymerase ribozyme fitness (log ratio)” value was -0.673.

Turning to C57A A89U A98G, the “polymerase ribozyme fitness (log ratio)” value was 0.118.

Take C57A G59C U146C U148A C149U: the “polymerase ribozyme fitness (log ratio)” value was -3.99.

As to C57A C75U G92C G140U, the “polymerase ribozyme fitness (log ratio)” value was at most -4.2.

Turning to C57G A98U, the “polymerase ribozyme fitness (log ratio)” value is -0.592.

Regarding U56A U82C C87G A150U, the “polymerase ribozyme fitness (log ratio)” value is -3.31.

Regarding C57A G100C, the “polymerase ribozyme fitness (log ratio)” value was at most -4.2.

With C57A A60C, the “polymerase ribozyme fitness (log ratio)” value was -1.35.

Take C57A U82G G84U C95A: the “polymerase ribozyme fitness (log ratio)” value is -0.701.

Take C57G A120U U144A: the “polymerase ribozyme fitness (log ratio)” value was -1.24.

On to C57A A60C C85A, for which the “polymerase ribozyme fitness (log ratio)” value is -3.08.

On to C57A G124U, for which the “polymerase ribozyme fitness (log ratio)” value was -0.787.

On to C57A C87U, for which the “polymerase ribozyme fitness (log ratio)” value was -1.52.

Consider C57A C87G, for which the “polymerase ribozyme fitness (log ratio)” value is -3.18.

Turning to U56G G88U G92U C96U C125A, the “polymerase ribozyme fitness (log ratio)” value is -3.87.

For U56A U144A, the “polymerase ribozyme fitness (log ratio)” value was -0.302.

Turning to C57A C76G A113G G126A C129A U134G, the “polymerase ribozyme fitness (log ratio)” value was at most -4.2.
